The record followed here is PMC8994484.

The experiment concerns the target ofCP (Olindias formosa). Kind of experiment: SEC. A general note: Size exclusion chromatography separates by hydrodynamic size, large species first.

In turn, ofCP (natural protein) had a stoichiometry N of 2.

What is called stoichiometry N is a count of units in the complex or per binding partner.
